Data taken from paper PMC8617373 (Cell Research, 2021).

B1: KREMEN1 expressed on HEK293E cells (receptor)
chain: ARPAPSPGLGPECFTANGADYRGTQNWTALQGGKPCLFWNETFQHPYNTLKYPNGEGGLGEHNYCRNPDGDVSPWCYVAEHEDGVYWKYCEIPACQMPGNLGCYKDHGNPPPLTGTSKTSNKLTIQTCISFCRSQRFKFAGMESGYACFCGNNPDYWKYGEAASTECNSVCFGDHTQPCGGDGRIILFDTLVGACGGNYSAMSSVVYSPDFPDTYATGRVCYWTIRVPGASHIHFSFPLFDIRDSADMVELLDGYTHRVLARFHGRSRPPLSFNVSLDFVILYFFSDRINQAQGFAVLYQAVKEELPQERPAVNQTVAEVITEQANLSVSAARSSKVLYVITTSPSHPPQTVPGSNSWAPPMGAGSHRVEGWTVYGLATLLILTVTAIVAKILLHVTFKSHRVPASGDLRDCHQPGTSGEIWSIFYKPSTSISIFKKKLKGQSQQDDRNPLVSD
B2: ASGR1 expressed on HEK293E cells (receptor)
chain: MTKEYQDLQHLDNEESDHHQLRKGPPPPQPLLQRLCSGPRLLLLSLGLSLLLLVVVCVIGSQNSQLQEELRGLRETFSNFTASTEAQVKGLSTQGGNVGRKMKSLESQLEKQQKDLSEDHSSLLLHVKQFVSDLRSLSCQMAALQGNGSERTCCPVNWVEHERSCYWFSRSGKAWADADNYCRLEDAHLVVVTSWEEQKFVQHHIGPVNTWMGLHDQNGPWKWVDGTDYETGFKNWRPEQPDDWYGHGLGGGEDCAHFTDDGRWNDDVCQRPYRWVCETELDKASQEPPLL

Target: SARS-CoV-2 S-ECD-hFc (extracellular domain of the spike (S) protein, hFc-tagged) (SARS-CoV-2, UniProt P0DTC2 14-1213)
Experiment: flow cytometry on cells

Binder	Kd [nM]
B1	19.3
B2	94.8
